Experimental data: patent CN116284407A (SUNSHINE GUOJIAN PHARMACEUTICAL SHANGHAI CO LTD, dated 2023)

Key:
人GUCY2C-Fc蛋白 = target: T1, 人GUCY2C-Fc蛋白 (human, UniProt P25092 24-430); assay: indirect ELISA, GUCY2C-Fc coated at 1 ug/mL, HRP anti-mouse IgG
T1 construct: extracellular domain; not shown: human IgG1 Fc at the C-terminus

[1] = target: T2, 人GUCY2C on cells (人结肠癌细胞CW2; GUCY2C过表达肿瘤细胞CW2-GCC#1) (human, UniProt P25092 24-1073); assay: flow cytometry on CW2 human colon cancer cells, PE anti-mouse secondary
T2 construct: whole, on cells; the gene put into CW2-GCC#1 is only called GUCY2C
T2 sequence (P25092 24-1073): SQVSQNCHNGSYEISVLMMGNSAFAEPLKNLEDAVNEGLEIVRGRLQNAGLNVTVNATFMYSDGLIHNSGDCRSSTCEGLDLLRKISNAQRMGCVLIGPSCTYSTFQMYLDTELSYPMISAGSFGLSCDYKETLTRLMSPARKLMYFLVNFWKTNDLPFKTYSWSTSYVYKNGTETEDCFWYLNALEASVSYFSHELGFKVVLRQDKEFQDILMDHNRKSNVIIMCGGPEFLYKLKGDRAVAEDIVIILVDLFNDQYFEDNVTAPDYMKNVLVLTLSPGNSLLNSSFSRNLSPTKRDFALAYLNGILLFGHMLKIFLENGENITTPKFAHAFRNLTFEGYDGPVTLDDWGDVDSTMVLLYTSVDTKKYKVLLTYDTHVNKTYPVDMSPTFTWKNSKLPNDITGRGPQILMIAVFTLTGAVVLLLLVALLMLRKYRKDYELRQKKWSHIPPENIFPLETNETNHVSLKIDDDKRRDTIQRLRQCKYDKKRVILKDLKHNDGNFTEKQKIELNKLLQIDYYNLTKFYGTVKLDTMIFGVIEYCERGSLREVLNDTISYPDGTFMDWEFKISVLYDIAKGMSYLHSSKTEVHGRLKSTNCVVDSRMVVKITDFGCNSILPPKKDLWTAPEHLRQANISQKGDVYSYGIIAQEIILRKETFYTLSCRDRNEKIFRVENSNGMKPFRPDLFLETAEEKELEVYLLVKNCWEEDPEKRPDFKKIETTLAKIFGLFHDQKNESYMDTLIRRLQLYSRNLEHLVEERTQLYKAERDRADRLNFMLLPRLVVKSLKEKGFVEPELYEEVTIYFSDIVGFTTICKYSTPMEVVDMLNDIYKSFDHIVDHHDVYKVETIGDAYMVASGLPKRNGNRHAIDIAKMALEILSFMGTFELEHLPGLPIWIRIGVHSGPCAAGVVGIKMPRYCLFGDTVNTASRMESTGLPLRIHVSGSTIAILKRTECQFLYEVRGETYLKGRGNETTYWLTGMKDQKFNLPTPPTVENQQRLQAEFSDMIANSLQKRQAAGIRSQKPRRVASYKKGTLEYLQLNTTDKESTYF

人GUCY2C-His蛋白 = target: T3, 人GUCY2C-His蛋白 (human, UniProt P25092 24-430); assay: ELISA, GUCY2C-His coated at 0.1 ug/mL, HRP anti-mouse secondary (Table 3)
T3 construct: extracellular domain
T3 sequence (P25092 other isoform, or with tags, fused parts or gaps): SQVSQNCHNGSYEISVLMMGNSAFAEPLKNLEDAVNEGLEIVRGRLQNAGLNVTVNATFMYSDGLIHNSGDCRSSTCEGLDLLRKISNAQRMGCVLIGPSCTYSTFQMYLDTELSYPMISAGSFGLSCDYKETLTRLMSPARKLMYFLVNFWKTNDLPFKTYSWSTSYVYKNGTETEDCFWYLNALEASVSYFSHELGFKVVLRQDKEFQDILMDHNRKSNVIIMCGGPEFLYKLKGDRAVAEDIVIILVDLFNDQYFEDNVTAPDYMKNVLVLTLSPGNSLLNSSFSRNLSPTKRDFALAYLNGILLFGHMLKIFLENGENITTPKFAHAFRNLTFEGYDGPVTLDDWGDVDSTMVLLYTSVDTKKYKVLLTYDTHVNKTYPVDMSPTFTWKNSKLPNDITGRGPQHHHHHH

T1 sequence (P25092 24-430): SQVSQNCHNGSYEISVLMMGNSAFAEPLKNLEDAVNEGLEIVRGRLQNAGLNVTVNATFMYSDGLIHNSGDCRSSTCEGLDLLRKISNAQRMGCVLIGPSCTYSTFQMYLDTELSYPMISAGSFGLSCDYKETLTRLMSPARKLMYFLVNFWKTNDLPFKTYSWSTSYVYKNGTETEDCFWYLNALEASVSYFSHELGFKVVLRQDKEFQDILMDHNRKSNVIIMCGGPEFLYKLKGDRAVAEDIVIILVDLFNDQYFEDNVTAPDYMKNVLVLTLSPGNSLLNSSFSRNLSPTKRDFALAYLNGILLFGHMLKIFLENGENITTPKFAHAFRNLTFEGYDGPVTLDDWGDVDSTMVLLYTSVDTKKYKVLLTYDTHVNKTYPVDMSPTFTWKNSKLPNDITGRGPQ

B1: 55G7A7H2 (antibody, V domains shown)
VH: QVQLQQSGADLARPGASVKMSCKASGYTFTSYTMHWVKQRPGQGLEWIGYINPSSGYTNYNQKFQDKATLTADKSSSTAYMQLSSLTSEDSAVYYCARLGRIGVYWGQGTTLTVSS
VL: QIVLSQSPAILSAFPGEKVTLTCRASSSVSFIHWYQQKPGSSPKPWIYATSNLASGVPDRFSGSGSGTSFSFTISRVEAEDAATYYCQQWSSNPWTFGGGTKLEIK
Question: Which EC50 (人GUCY2C-Fc蛋白) does the source give for B1 here?
Answer: 0.0215 µg/mL

Question: What about the EC50 [1] of the same binder?
Answer: 6.27 µg/mL

Question: What about the EC50 (人GUCY2C-His蛋白) of the same binder?
Answer: 120 pM
